Measurements from the DeepSol protein solubility set.

Test: soluble on expression in E. coli; label from the status in PepcDB or PDB records
For “MGSDKIHHHHHHMTIATDSLKLITTVEQLKYYLIQAMKIEHATIPPYMTALYSIKPGKNLEAFHIIREVAVEEMLHLTLVANVYNAVGGSFASPVLTAPNFIPTYPSYLPTGSTDFKVGLTKFSKKTIETFRKIERSKDVEEGDPLVESRSLQEYLLEVVGCDPTKTFYSIGLFYAEIIRGLNALYKEKGPDLFCGDPRRQITPEYYYNGGGDIIPVTDLRSAMRALKVIQEQGEGSRSGTIYDAERELAHDYRFQQILLEKYYVIDKDDPTKSDQPNEPTGKSFNVDWNEVYPIKDNAKLSDYPEGSEVRTAALAFHSAYSEFLAKIEYAFDGHPEQLVPAVGGMFRLKEQANSLMRNPIPGNPGVNAAPIFKLDKR”, the “soluble on expression in E. coli” value was “not soluble”. In the case of “SSESIRMVLIGPPGAGKGTQAPNLQERFHAAHLATGDMLRSQIAKGTQLGLEAKKIMDQGGLVSDDIMVNMIKDELTNNPACKNGFILVGFPRTIPQAEKLDQMLKEQGTPLEKAIELKVDDELLVARITGRLIHPASGRSYHKIFNPPKEDMKDDVTGEALVQISDDNADALKKRLAAYHAQTEPIVDFYKKTGIWAGVDASQPPATVWADILNKLGKN”, the “soluble on expression in E. coli” value is reported as “soluble”. With “MSDLHTKLGSGMNKLQEGIEQGKMKLQVAQEIAQLKKGMQVQMQKKAEVLLEVGQQVYVQLRGSGVNEASLKEMIAPVQEFDVAIYQARKRIVELQKQQGEKATCECGGPLSINDKFCGSCGKPNPMLTVENEGETVNCISCNEHIDKNSTYCPVCGIKQSGE” the “soluble on expression in E. coli” value was “not soluble”. In the case of “MNEIIGKFAREGILIEDNAYFRLREMDDPASVSSELIVKIKSNGGKFTVLTSEMLDEFFEIDNPAEIKARGPLMVPAERDFDFEVISDTSNRSYTSGEIGDMIAYFNSRYSSLKNLLSKRPELKGHIPIADLRGGEDVVSIIGMVNDVRNTKNNHRIIELEDDTGEISVVVHNENHKLFEKSEKIVRDEVVGVHGTKKGRFVVASEIFHPGVPRIQEKEMDFSVAFISDVHIGSQTFLEDAFMKFVKWINGDFGSEEQRSLAADVKYLVVAGDIVDGIGIYPGQEKELLIRDIHEQYEEAARLFGDIRSDIKIVMIPGNHDSSRIAEPQPAIPEEYAKSLYSIRNIEFLSNPSLVSLDGVRTLIYHGRSFDDMAMSVNGLSHERSDLIMEELLEKRHLAPIYGERTPLASEIEDHLVIDEVPHVLHTGHVHINAYKKYKGVHLINSGTFQSQTEFQKIYNIVPTCGQVPVLNRGVMKLLEFSLEHHHHHH”, the “soluble on expression in E. coli” value is reported as “not soluble”. With “MAYQVTTFYHFTRLNCLAEKQSRWQELGDRLGLKGTILLAEEGVNATIAGESAAIEEMVKIMAADLGLTSVPQRHSWAKTIPFQRMKVKIKPEIVSLGQPQVNPEKQVGTYVSPQQWNQLLQDPDVVVIDTRNDYEVAIGTFQGAVNPCTKKFRQFPDYVKNNLDQQKNKKVAMFCTGGIRCEKASAYLLEEGFAEVYHLRGGILHYLETIAPEESLWQGECFVFDERVAVQEGLKVGSHALCDHCGYPLRVGDLAEIRYAVRHCPQCGLTVAVSNELLEHHHHHH” the “soluble on expression in E. coli” value was “soluble”. For “EVKLVESGGGLVKPGGSLKLSCAASGFTFSRYALSWVRQTADKRLEWVASIVSGGNTYYSGSVKGRFTISRDIARNILYLQMSSLRSEDTAMYYCARAYYGYVGLVHWGQGTLVTVSSAKTTPPSVYPLAPGSAAQTNSMVTLGCLVKGYFPEPVTVTWNSGSLSSGVHTFPAVLQSDLYTLSSSVTVPSSTWPSETVTCNVAHPASSTKVDKKIVPRDCG”, the “soluble on expression in E. coli” value was “soluble”. For “GSHMRTIIALETHDVRFPTSRELDGSDAMNPDPDYSAAYVVLRTDGAEDLAGYGLVFTIGRGNDVQTAAVAALAEHVVGLSVDKVIADLGAFARRLTNDSQLRWLGPEKGVMHMAIGAVINAAWDLAARAANKPLWRFIAELTPEQLVDTIDFRYLSDALTRDEALAILRDAQPQRAARTATLIEQGYPAYTTSPGWLGYSDEKLVRLAKEAVADGFRTIKLKVGANVQDDIRRCRLARAAIGPDIAMAVDANQRWDVGPAIDWMRQLAEFDIAWIEEPTSPDDVLGHAAIRQGITPVPVSTGEHTQNRVVFKQLLQAGAVDLIQIDAARVGGVNENLAILLLAAKFGVRVFPHAGGVGLCELVQHLAMADFVAITGKMEDRAIEFVDHLHQHFLDPVRIQHGRYLAPEVPGFSAEMHPASIAEFSYPDGRFWVEDLAASKAKA”, the “soluble on expression in E. coli” value was “soluble”. With “DIALTQPASVSGSPGQSITISCTGTSSDVGSNNYVSWYQQHPGKAPKLMIYGGSNRPSGVSNRFSGSKSGNTASLTISGLQAEDEADYYCRSWDSNLSYSVFGGGTKLTVLGQPKAAPSVTLFPPSSEELQANKATLVCLISDFYPGAVTVAWKADSSPVKAGVETTTPSKQSNNKYAASSYLSLTPEQWKSHRSYSCQVTHEGSTVEKTVAPTEA” the “soluble on expression in E. coli” value was “soluble”. For “MGLFNNFKFKYTRAQLEIFRFSFCLLAPVAVMYYIGTDTDKKLNVPGFWPDPATLNQIPKEPYEIKAELARMKKERLEKRLRLEKKIQEEFGLDLEEEKEKIKRDLALKKG”, the “soluble on expression in E. coli” value was “soluble”. For “MSETATWQPSASIPNLLKRAAIMAEIRRFFADRGVLEVETPCMSQATVTDIHLFPFETRFVGPGHSQGINLYLMTSPEYHMKRLLAAGCGPVFQLCRSFRNEEMGRHHNPEFTMLEWYRPHYDMYRLMNEVDDLLQQVLDCQPAESLSYQQAFQRHLEIDPLSADKTQLREAAAKLDLSNIADTEEDRDTLLQLLFTMGVEPHIGKEKPTFIYHFPASQASLAQISTEDHRVAERFEVYYKGIELANGFHELTDAREQQQRFEQDNRKRAARGLPQQPIDQNLLDALAAGLPDCSGVALGVDRLVMLALGAESLADVIAFTVDRA”, the “soluble on expression in E. coli” value was “not soluble”. For “MPGGRGRIGVILPANNAGMEYDLWKMAPEGVSIHSTRMKPTKGCEPENVEEFEKELKYSYSLLAEVSDIIIYGRTYGTHKHAHVIKRVIKDVVIPEESVYELLKKLNVRKLWIGTPYIKERTLEEVEWWRNKGFEIVGYDGLGKIRGIDISNTPIFTIYRLVKRHLNEVLKADAVYIACTALSTYEAVQYLHEDLDMPVVSENAAAMWEALNKLKIKAKLPGF”, the “soluble on expression in E. coli” value was “soluble”. In the case of “MGNSSSLMLRDEEIEEIMSETEFNRNQIVRLYSRFLSLDKKGQGFLSRDDFLNVPELAVNPLGDRIVDAFFTLASSNGDNEEQQLNFRQFVRILAHFQPISRVKKNALNSRKDKLLFAFKMYDLNKNDYITREEFKVILNSMVGANITSDQLDKIADRTIEEADADRDGKISFDEFCRAMEKTDIEEKMSIRFLN”, the “soluble on expression in E. coli” value is reported as “soluble”. For “MSMEPTLQSILDQRSLRWIFVGGKGGVGKTTTSCSLAIQLAKVRRSVLLLSTDPAHNLSDAFSQKFGKEARLVEGFDNLYAMEIDPNGSMQDLLAGQTGDGDAGMGGVGVMQDLAYAIPGIDEAMSFAEVLKQVNSLSYETIVFDTAPTGHTLRFLQFPTVLEKALAKVSQLSGQYGSLLNGILGGSGTLPNGQTLSDVMEKLDSLRVTISEVNAQFKDERLTTFVCVCIPEFLSLYETERMIQELANYGIDTHCIVVNQLLFPKPGSDCEQCTARRRMQKKYLDQIEELYDEEFNVVKMPLLVEEVRGKERLEKFSEMLIKPFVPPEHHHHHH”, the “soluble on expression in E. coli” value was “soluble”. With “MAHHHHHHMGGCCKGARCPFSHELVQLPPKGVDASGGYFISGNVANYRAAASTSTASPSSRSFVGRWDDPTASSSTDGLSTLASPSSCCVTTGTSLSAEAKEWVGADSAATSSSANSATASITSVQSLRGAASPTFCVSSSSLRYRSAALRRTAQQVSPLPMPHSQRDSQPQPQQAQTQLQSQQSQKPQPSPPQPQLHQQHKRQYQPPPQPRSVANALSALLPNHSESSAAAETRHTSAAPAHPAATARTVSFTQSSNGSGSTTIAALASFFDMQRVSTGAPSATPSSAASQPSKVVFATRRDDQTPATAPTPATAAPPRYTAACITLAASNQRFDPSPSAPSIPTTATPAPAHGSSRSATTSQHMEAPLPRSREALATGAEHQTATVAKAHVTQSAAPPSAAAAPTSPPQYESRTASSAQTRVMPPAPRSQQQQAAHQAQQLRAQEEAQRQVQIQQQLHAQQQAQQLAQQQAQLQQFQQQIQPQKPPPPQQTVYMLTTSRPPTTSTPPHEGIVAPDQLPLGYTLAYAVSTPTPTASAATPILISEQPSAARPTYTLLSSCPPQSQLQSFQTAKGTVLYATPAQVLTQAAAPSENDAPRLILVNTDGTFTVLQAETLAATAGLGLSPTIMRAH” the “soluble on expression in E. coli” value was “not soluble”. With “LTLRAGREQNIPMNLSDSWAARRPVTARVSAAEAVLADLRDAITSGELSVGERLPSEASLAARHGVSRSVIREALRSCHALGLTETKSGLGTFVVSDSIARDLDFGNYAANELVEARPHVEIPAAGWAAQRHTAEDLAALRGLVDQMRDEDDPLVWVSLDAQFHAFIARTSRNRVFESVIVDIREALTRQSETLNLVAGRQQKSNDEHDRIVEGIASGSYDKAARAMAEHLDAVRVALESVVGEAGPDRRQ” the “soluble on expression in E. coli” value was “not soluble”. For “MEKKIGFIGCGNMGKAILGGLIASGQVLPGQIWVYTPSPDKVAALHDQYGINAAQSAQEVAQVADIVFGAVKPGIMVKVLSEISSSLNKDSLVVSIAAGVTLDQLARALGHDRKIIRAMPNTPSLVNAGMTSVTPNALVTPEDTADVLNIFRCFGGAEVIAEPMIHPVVGVSGSSPAYVFMFIEAMADAAVLGGMPRAQAYKFAAQAVMGSAKMVLETGKHPGELKDMVCSPGGTTIEAVRVLEERGFRAAVIEAMTKCMEKSEALSKSLEHHHHHH”, the “soluble on expression in E. coli” value was “soluble”. For “MSLSSPQFEENSFECPVEIGISNMCGKRDSMQDTSVVITNFLGIGFHLLSLFDGHSGIYSSCFCASQFPNCFANILSKNPQQSIEDALIHSFKEMNQKINEYKFNDGTAANVVLITPQRYFIANVGDSRCILVKKDSIIILNEDHTINNPDEVQRIRKLNGFIDHSKVNGEIVLTRTLGDIQCSSVCSCIPQITCHERGIDDICIVLCCDGVFDVLSNELVGEICRKKSNESASVLSSLIRDIAYNNGCKDNISCIVCKLMSEGHHHHHH”, the “soluble on expression in E. coli” value was “soluble”. With “MTGYGSLFERLNGDADKRVGWSREVSAMASVAAHLGKMLSTRAGSVQTLSDYGLPDLNDMRLSLHDSLSQARSAIEGFIEAYEPRLSDVRVVSLPRDNDQLRLAFSIEGLLEVEGFKRQVSFSACLDGSGQVKVS” the “soluble on expression in E. coli” value was “not soluble”. For “MSLAFVPHVPRHSRGDNPPSASTASPAVLTLTGERTIPDLDIENYWFRRHQVVYQRLAPRCTARDVLEAGCGEGYGADLIACVARQVIAVDYDETAVAHVRSRYPRVEVMQANLAELPLPDASVDVVVNFQVIEHLWDQARFVRECARVLRGSGLLMVSTPNRITFSPGRDTPINPFHTRELNADELTSLLIDAGFVDVAMCGLFHGPRLRDMDARHGGSIIDAQIMRAVAGAPWPPELAADVAAVTTADFEMVAAGHDRDIDDSLDLIAIAVREGHHHHHH”, the “soluble on expression in E. coli” value was “soluble”. In the case of “MAARRAPISRRDRPAKPALSRRWIVDTAVALMRAEGLEKVTMRRLAQELDTGPASLYVYVANTAELHAAVLDALLGEVDLTGAGAEEDWREQLRAVLTSYTLVLFAHPQLARSALVARPSGENYLRLVERVLELLARSGAPGAQVAWGVDKLLQDATATAAEQATQEHDPASHEDWSATVRALRDADEATHPAIASHMPLLVAGSAHDRLRWSFDVLVNGITRTPVPGPARGAAG”, the “soluble on expression in E. coli” value is reported as “soluble”. For “MEKNKLRKVGLTALEWLKQHPEIKQHKESSLYEQLFASQQWQQAQTIGMIRSLPLELSTQPIFERAMQESKQVAVPRTFKGGKMHFYQVFPETVYDTSAFGVEEPPLTAAEITATAIDLLIVPGIVFNRAGYRIGFGGGFYDRYLEHFSGHSCSLVFSEQLHEQWQPEAFDQPIEQLFIQLEHHHHHH”, the “soluble on expression in E. coli” value was “not soluble”. For “MGSDKIHHHHHHMKVVTFGEIMLRLSPPDHKRIFQTDSFDVTYGGAEANVAAFLAQMGLDAYFVTKLPNNPLGDAAAGHLRKFGVKTDYIARGGNRIGIYFLEIGASQRPSKVVYDRAHSAISEAKREDFDWEKILDGARWFHFSGITPPLGKELPLILEDALKVANEKGVTVSCDLNYRARLWTKEEAQKVMIPFMEYVDVLIANEEDIEKVLGISVEGLDLKTGKLNREAYAKIAEEVTRKYNFKTVGITLRESISATVNYWSVMVFENGQPHFSNRYEIHIVDRVGAGDSFAGALIYGSLMGFDSQKKAEFAAAASCLKHTIPGDFVVLSIEEIEKLASGATSGRVER”, the “soluble on expression in E. coli” value was “soluble”.
